Laboratory results from patent publication US20060039927A1 (US Dept. of Health and Human Services, published 2006).

B3: sgp130-Fc (R&D Systems), a fusion protein of sgp130 and human IgG Fc (Fc fusion)
chain: ELLDPCGYISPESPVVQLHSNFTAVCVLKEKCMDYFHVNANYIVWKTNHFTIPKEQYTIINRTASSVTFTDIASLNIQLTCNILTFGQLEQNVYGITIISGLPPEKPKNLSCIVNEGKKMRCEWDGGRETHLETNFTLKSEWATHKFADCKAKRDTPTSCTVDYSTVYFVNIEVWVEAENALGKVTSDHINFDPVYKVKPNPPHNLSVINSEELSSILKLTWTNPSIKSVIILKYNIQYRTKDASTWSQIPPEDTASTRSSFTVQDLKPFTEYVFRIRCMKEDGKGYWSDWSEEASGITYEDRPSKAPSFWYKIDPSHTQGYRTVQLVWKTLPPFEANGKILDYEVTLTRWKSHLQNYTVNATKLTVNLTNDRYLATLTVRNLVGKSDAAVLTIPACDFQATHPVMDLKAFPKDNMLWVEWTTPRESVKKYILEWCVLSDKAPCITDWQQEDGTVHRTYLRGNLAESKCYLITVTPVYADGPGSPESIKAYLKQAPPSKGPTVRTKKVGKNEAVLEWDQLPVDVQNGFIRNYTIFYRTIIGNETAVNVDSSHTEYTLSSLTSDTLYMVRMAAYTDEGGKDGPEFTFTTPKFAQGEIE
notes: extracellular domain; Immobilized on the CM5 chip in the BIAcore work; the results text calls it sgp130; also called immobilized sgp130; not shown: human IgG Fc

Tests used:
[1] = target: T1, maltose binding protein (MBP), control (UniProt P0AEX9 27-392 = MBP); experiment: indirect ELISA, receptor immobilized
Method: Reactions were visualized by using tetramethoxybenzene peroxidase substrate (Kirkegaard & Perry Laboratories, Gaithersburg, Md.), followed by 2N H2SO4. The interference of vIL-6 binding to sgp130 by mAbs was analyzed in a similar manner. […] The mixture was applied to the plates coated with sgp130 (2 μg/ml) after SuperBlock treatment. The protein complex was detected by streptavidin-HRP (1:1000; Kirkegaard & Perry Laboratories), and the peroxidase activity was visualized by tetramethoxybenzene peroxidase substrate, followed by 2N H₂SO₄. Plates were read at 450 nm with λ correction at 630 m using a microplate reader.

[2] = target: B3; experiment: SPR (BIAcore 2000), equilibrium data, Scatchard analysis, sgp130-Fc immobilized
[3] = target: B3; experiment: SPR Kd of this filing against a previously reported Kd (1.7 nM) of the human IL-6/sIL-6Rα complex
[4] = target: B3; experiment: SPR (BIAcore 2000), sgp130-Fc immobilized on CM5, MBPvIL-6 in flow, 1:1 Langmuir binding model
[5] = target: T1, maltose binding protein (MBP), control; experiment: surface plasmon resonance (BIAcore 2000), sgp130 immobilized at 1.5 ng/mm2

B1: purified recombinant human sIL-6Rα (R&D Systems) (receptor)
chain: LAPRRCPAQEVARGVLTSLPGDSVTLTCPGVEPEDNATVHWVLRKPAAGSHPSRWAGMGRRLLLRSVQLHDSGNYSCYRAGRPAGTVHLLVDVPPEEPQLSCFRKSPLSNVVCEWGPRSTPSLTTKAVLLVRKFQNSPAEDFQEPCQYSQESQKFSCQLAVPEGDSSFYIVSMCVASSVGSKFSKTQTFQGCGILQPDPPANITVTAVARNPRWLSVTWQDPHSWNSSFYRLRFELRYRAERSKTFTTWMVKDLQHHCVIHDAWSGLRHVVQLRAQEEFGQGEWSEWSPEAMGTPWTESRSPPAENEVSTPMQALTTNKDDDNILFRDSANATSLPVQDSSSVPLP
notes: extracellular domain; Bought; also called soluble IL-6Rα
- binding result [1]: no binding

B2: MBPvIL-6 (fusion of maltose binding protein, a factor Xa cleavage site and amino acids 22-204 of KSHV vIL-6) (ligand)
chain: GKLPDAPEFEKDLLIQRLNWMLWVIDECFRDLCYRTGICKGILEPAAIFHLKLPAINDTDHCGLIGFNETSCLKKLADGFFEFEVLFKFLTTEFGKSVINVDVMELLTKTLGWDIQEELNKLTKTHYSPPKFDRGLLGRLQGLKYWVRHFASFYVLSAMEKFAGQAVRVLNSIPDVTPDVHDK
modifications: biotinylated in the sgp130 interference ELISA (sites not given)
notes: range 22-204; also called recombinant vIL-6; full length MBPvIL-6; not shown: factor Xa cleavage site and vector linker between MBP and vIL-6
- Kd [2]: 2500 nM
- fold lower binding affinity than human IL-6/sIL-6Rα complex to gp130 [3]: 1000 fold
- Kd [4]: 2200 nM
- koff [4]: 0.0022 s⁻¹
- kon [4]: 980 M⁻¹ s⁻¹

Binder: B3
- binding result [5]: no binding

B4: purified recombinant human sgp130 (R&D Systems) (receptor)
chain: ELLDPCGYISPESPVVQLHSNFTAVCVLKEKCMDYFHVNANYIVWKTNHFTIPKEQYTIINRTASSVTFTDIASLNIQLTCNILTFGQLEQNVYGITIISGLPPEKPKNLSCIVNEGKKMRCEWDGGRETHLETNFTLKSEWATHKFADCKAKRDTPTSCTVDYSTVYFVNIEVWVEAENALGKVTSDHINFDPVYKVKPNPPHNLSVINSEELSSILKLTWTNPSIKSVIILKYNIQYRTKDASTWSQIPPEDTASTRSSFTVQDLKPFTEYVFRIRCMKEDGKGYWSDWSEEASGITYEDRPSKAPSFWYKIDPSHTQGYRTVQLVWKTLPPFEANGKILDYEVTLTRWKSHLQNYTVNATKLTVNLTNDRYLATLTVRNLVGKSDAAVLTIPACDFQATHPVMDLKAFPKDNMLWVEWTTPRESVKKYILEWCVLSDKAPCITDWQQEDGTVHRTYLRGNLAESKCYLITVTPVYADGPGSPESIKAYLKQAPPSKGPTVRTKKVGKNEAVLEWDQLPVDVQNGFIRNYTIFYRTIIGNETAVNVDSSHTEYTLSSLTSDTLYMVRMAAYTDEGGKDGPEFTFTTPKFAQGEIE
notes: extracellular domain; Used in the ELISA assays; Bought; also called soluble gp130
- binding result [1]: no binding
